According to patent US20160272693A1 (ZEALAND PHARMA A S, published 2016):
*1 amine or outer side, *2 acyl side, *3 side chain or, on linkers, in order; H or OH if unused. Bridges are numbered along the chain shown (N, C = ends). [ ]: non-standard residue; d: D form. The star is where a group is joined. Pro(trans-4-NH2) = O=C([C@@H]1C[C@@H](N[*:3])CN1[*:1])[*:2]; C20 diacid = O=C(O)CCCCCCCCCCCCCCCCCCC(=O)*; γGlu = O=C(O)[C@H](CCC(=O)[*:2])N[*:1]; Hyp = O=C(O)[C@@H]1C[C@@H](O)CN1; NMeI = CC[C@H](C)[C@H](NC)C(=O)O; Aad = N[C@@H](CCCC(=O)O)C(=O)O; Orn = NCCC[C@H](N)C(=O)O; Sar = CNCC(=O)O

T1: human amylin receptor 3 (hAMYR3), hCTR2 co-expressed with human receptor activity modifying protein 3 (hRAMP3) (human, UniProt P30988 25-474; O60896 24-148)
T1 sequence (looked up) 1: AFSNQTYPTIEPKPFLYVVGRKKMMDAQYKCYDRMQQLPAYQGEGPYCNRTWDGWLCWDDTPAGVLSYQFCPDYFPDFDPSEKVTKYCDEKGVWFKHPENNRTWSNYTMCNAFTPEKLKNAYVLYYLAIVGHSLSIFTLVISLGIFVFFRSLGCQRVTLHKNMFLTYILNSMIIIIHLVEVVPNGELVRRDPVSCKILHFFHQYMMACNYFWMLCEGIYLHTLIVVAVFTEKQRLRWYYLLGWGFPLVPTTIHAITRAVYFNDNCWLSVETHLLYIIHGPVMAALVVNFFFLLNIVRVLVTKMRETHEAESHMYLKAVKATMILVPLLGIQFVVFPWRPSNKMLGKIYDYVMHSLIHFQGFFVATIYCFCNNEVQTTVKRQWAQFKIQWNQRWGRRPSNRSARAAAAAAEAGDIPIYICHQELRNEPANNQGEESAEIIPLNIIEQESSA
T1 sequence (looked up) 2: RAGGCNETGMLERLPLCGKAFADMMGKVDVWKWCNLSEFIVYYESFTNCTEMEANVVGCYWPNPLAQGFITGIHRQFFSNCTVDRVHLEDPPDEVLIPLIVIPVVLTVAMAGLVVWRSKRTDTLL

B1: [19CD]-isoGlu-R-C( )-GTAT-C( )-ATERLADFLTRSSF-Gly(Me)-A-Ile(Me)-LSSTEVGSFT-Hyp-NH2 (Compd. 42) (peptide)
peptide: {C20 diacid}-[γGlu]RCGTATCATERLADFLTRSSF[Sar]A[NMeI]LSSTEVGSFT[Hyp]-NH2
modifications: disulfide 3-8
SMILES: CC[C@H](C)[C@@H](C(=O)N[C@@H](CC(C)C)C(=O)N[C@@H](CO)C(=O)N[C@@H](CO)C(=O)N[C@H](C(=O)N[C@@H](CCC(=O)O)C(=O)N[C@H](C(=O)NCC(=O)N[C@@H](CO)C(=O)N[C@@H](Cc1ccccc1)C(=O)N[C@H](C(=O)N1C[C@H](O)C[C@H]1C(N)=O)[C@@H](C)O)C(C)C)[C@@H](C)O)N(C)C(=O)[C@H](C)NC(=O)CN(C)C(=O)[C@H](Cc1ccccc1)NC(=O)[C@H](CO)NC(=O)[C@H](CO)NC(=O)[C@H](CCCNC(=N)N)NC(=O)[C@@H](NC(=O)[C@H](CC(C)C)NC(=O)[C@H](Cc1ccccc1)NC(=O)[C@H](CC(=O)O)NC(=O)[C@H](C)NC(=O)[C@H](CC(C)C)NC(=O)[C@H](CCCNC(=N)N)NC(=O)[C@H](CCC(=O)O)NC(=O)[C@@H](NC(=O)[C@H](C)NC(=O)[C@@H]1CSSC[C@H](NC(=O)[C@H](CCCNC(=N)N)NC(=O)CC[C@H](NC(=O)CCCCCCCCCCCCCCCCCCC(=O)O)C(=O)O)C(=O)NCC(=O)N[C@@H]([C@@H](C)O)C(=O)N[C@@H](C)C(=O)N[C@@H]([C@@H](C)O)C(=O)N1)[C@@H](C)O)[C@@H](C)O
B2: [19CD]-isoGlu-R-C( )-GTAT-C( )-ATERLA-Aad-FLTRSSF-Gly(Me)-A-Ile(Me)-LSSTEVGSST-Hyp-NH2 (Compd. 43) (peptide)
peptide: {C20 diacid}-[γGlu]RCGTATCATERLA[Aad]FLTRSSF[Sar]A[NMeI]LSSTEVGSST[Hyp]-NH2
modifications: disulfide 3-8
SMILES: CC[C@H](C)[C@@H](C(=O)N[C@@H](CC(C)C)C(=O)N[C@@H](CO)C(=O)N[C@@H](CO)C(=O)N[C@H](C(=O)N[C@@H](CCC(=O)O)C(=O)N[C@H](C(=O)NCC(=O)N[C@@H](CO)C(=O)N[C@@H](CO)C(=O)N[C@H](C(=O)N1C[C@H](O)C[C@H]1C(N)=O)[C@@H](C)O)C(C)C)[C@@H](C)O)N(C)C(=O)[C@H](C)NC(=O)CN(C)C(=O)[C@H](Cc1ccccc1)NC(=O)[C@H](CO)NC(=O)[C@H](CO)NC(=O)[C@H](CCCNC(=N)N)NC(=O)[C@@H](NC(=O)[C@H](CC(C)C)NC(=O)[C@H](Cc1ccccc1)NC(=O)[C@H](CCCC(=O)O)NC(=O)[C@H](C)NC(=O)[C@H](CC(C)C)NC(=O)[C@H](CCCNC(=N)N)NC(=O)[C@H](CCC(=O)O)NC(=O)[C@@H](NC(=O)[C@H](C)NC(=O)[C@@H]1CSSC[C@H](NC(=O)[C@H](CCCNC(=N)N)NC(=O)CC[C@H](NC(=O)CCCCCCCCCCCCCCCCCCC(=O)O)C(=O)O)C(=O)NCC(=O)N[C@@H]([C@@H](C)O)C(=O)N[C@@H](C)C(=O)N[C@@H]([C@@H](C)O)C(=O)N1)[C@@H](C)O)[C@@H](C)O
B3: [19CD]-isoGlu-R-C( )-GTAT-C( )-ATERLA-Aad-FLTRSSF-Gly(Me)-A-Ile(Me)-LSSTEVGS-Orn-T-Hyp-NH2 (Compd. 44) (peptide)
peptide: {C20 diacid}-[γGlu]RCGTATCATERLA[Aad]FLTRSSF[Sar]A[NMeI]LSSTEVGS[Orn]T[Hyp]-NH2
modifications: disulfide 3-8
SMILES: CC[C@H](C)[C@@H](C(=O)N[C@@H](CC(C)C)C(=O)N[C@@H](CO)C(=O)N[C@@H](CO)C(=O)N[C@H](C(=O)N[C@@H](CCC(=O)O)C(=O)N[C@H](C(=O)NCC(=O)N[C@@H](CO)C(=O)N[C@@H](CCCN)C(=O)N[C@H](C(=O)N1C[C@H](O)C[C@H]1C(N)=O)[C@@H](C)O)C(C)C)[C@@H](C)O)N(C)C(=O)[C@H](C)NC(=O)CN(C)C(=O)[C@H](Cc1ccccc1)NC(=O)[C@H](CO)NC(=O)[C@H](CO)NC(=O)[C@H](CCCNC(=N)N)NC(=O)[C@@H](NC(=O)[C@H](CC(C)C)NC(=O)[C@H](Cc1ccccc1)NC(=O)[C@H](CCCC(=O)O)NC(=O)[C@H](C)NC(=O)[C@H](CC(C)C)NC(=O)[C@H](CCCNC(=N)N)NC(=O)[C@H](CCC(=O)O)NC(=O)[C@@H](NC(=O)[C@H](C)NC(=O)[C@@H]1CSSC[C@H](NC(=O)[C@H](CCCNC(=N)N)NC(=O)CC[C@H](NC(=O)CCCCCCCCCCCCCCCCCCC(=O)O)C(=O)O)C(=O)NCC(=O)N[C@@H]([C@@H](C)O)C(=O)N[C@@H](C)C(=O)N[C@@H]([C@@H](C)O)C(=O)N1)[C@@H](C)O)[C@@H](C)O
B4: [19CD]-isoGlu-R-C( )-GTAT-C( )-ATERLAHFLTRSSF-Gly(Me)-A-Ile(Me)-LSSTEVGSST-Apr-NH2 (Compd. 45) (peptide)
peptide: {C20 diacid}-[γGlu]RCGTATCATERLAHFLTRSSF[Sar]A[NMeI]LSSTEVGSST[Pro(trans-4-NH2)]-NH2
modifications: disulfide 3-8
SMILES: CC[C@H](C)[C@@H](C(=O)N[C@@H](CC(C)C)C(=O)N[C@@H](CO)C(=O)N[C@@H](CO)C(=O)N[C@H](C(=O)N[C@@H](CCC(=O)O)C(=O)N[C@H](C(=O)NCC(=O)N[C@@H](CO)C(=O)N[C@@H](CO)C(=O)N[C@H](C(=O)N1C[C@H](N)C[C@H]1C(N)=O)[C@@H](C)O)C(C)C)[C@@H](C)O)N(C)C(=O)[C@H](C)NC(=O)CN(C)C(=O)[C@H](Cc1ccccc1)NC(=O)[C@H](CO)NC(=O)[C@H](CO)NC(=O)[C@H](CCCNC(=N)N)NC(=O)[C@@H](NC(=O)[C@H](CC(C)C)NC(=O)[C@H](Cc1ccccc1)NC(=O)[C@H](Cc1c[nH]cn1)NC(=O)[C@H](C)NC(=O)[C@H](CC(C)C)NC(=O)[C@H](CCCNC(=N)N)NC(=O)[C@H](CCC(=O)O)NC(=O)[C@@H](NC(=O)[C@H](C)NC(=O)[C@@H]1CSSC[C@H](NC(=O)[C@H](CCCNC(=N)N)NC(=O)CC[C@H](NC(=O)CCCCCCCCCCCCCCCCCCC(=O)O)C(=O)O)C(=O)NCC(=O)N[C@@H]([C@@H](C)O)C(=O)N[C@@H](C)C(=O)N[C@@H]([C@@H](C)O)C(=O)N1)[C@@H](C)O)[C@@H](C)O
B5: [19CD]-isoGlu-R-C( )-GTAT-C( )-ATERLAHFLTRSSF-Gly(Me)-A-Ile(Me)-LSSTEVGSSTP-NH2 (Compd. 46) (peptide)
peptide: {C20 diacid}-[γGlu]RCGTATCATERLAHFLTRSSF[Sar]A[NMeI]LSSTEVGSSTP-NH2
modifications: disulfide 3-8
SMILES: CC[C@H](C)[C@@H](C(=O)N[C@@H](CC(C)C)C(=O)N[C@@H](CO)C(=O)N[C@@H](CO)C(=O)N[C@H](C(=O)N[C@@H](CCC(=O)O)C(=O)N[C@H](C(=O)NCC(=O)N[C@@H](CO)C(=O)N[C@@H](CO)C(=O)N[C@H](C(=O)N1CCC[C@H]1C(N)=O)[C@@H](C)O)C(C)C)[C@@H](C)O)N(C)C(=O)[C@H](C)NC(=O)CN(C)C(=O)[C@H](Cc1ccccc1)NC(=O)[C@H](CO)NC(=O)[C@H](CO)NC(=O)[C@H](CCCNC(=N)N)NC(=O)[C@@H](NC(=O)[C@H](CC(C)C)NC(=O)[C@H](Cc1ccccc1)NC(=O)[C@H](Cc1c[nH]cn1)NC(=O)[C@H](C)NC(=O)[C@H](CC(C)C)NC(=O)[C@H](CCCNC(=N)N)NC(=O)[C@H](CCC(=O)O)NC(=O)[C@@H](NC(=O)[C@H](C)NC(=O)[C@@H]1CSSC[C@H](NC(=O)[C@H](CCCNC(=N)N)NC(=O)CC[C@H](NC(=O)CCCCCCCCCCCCCCCCCCC(=O)O)C(=O)O)C(=O)NCC(=O)N[C@@H]([C@@H](C)O)C(=O)N[C@@H](C)C(=O)N[C@@H]([C@@H](C)O)C(=O)N1)[C@@H](C)O)[C@@H](C)O
B6: [19CD]-isoGlu-R-C( )-GTAT-C( )-ATERLAHFLTRSSF-Gly(Me)-A-Ile(Me)-LSSTEVGS-Orn-TP-NH2 (Compd. 47) (peptide)
peptide: {C20 diacid}-[γGlu]RCGTATCATERLAHFLTRSSF[Sar]A[NMeI]LSSTEVGS[Orn]TP-NH2
modifications: disulfide 3-8
SMILES: CC[C@H](C)[C@@H](C(=O)N[C@@H](CC(C)C)C(=O)N[C@@H](CO)C(=O)N[C@@H](CO)C(=O)N[C@H](C(=O)N[C@@H](CCC(=O)O)C(=O)N[C@H](C(=O)NCC(=O)N[C@@H](CO)C(=O)N[C@@H](CCCN)C(=O)N[C@H](C(=O)N1CCC[C@H]1C(N)=O)[C@@H](C)O)C(C)C)[C@@H](C)O)N(C)C(=O)[C@H](C)NC(=O)CN(C)C(=O)[C@H](Cc1ccccc1)NC(=O)[C@H](CO)NC(=O)[C@H](CO)NC(=O)[C@H](CCCNC(=N)N)NC(=O)[C@@H](NC(=O)[C@H](CC(C)C)NC(=O)[C@H](Cc1ccccc1)NC(=O)[C@H](Cc1c[nH]cn1)NC(=O)[C@H](C)NC(=O)[C@H](CC(C)C)NC(=O)[C@H](CCCNC(=N)N)NC(=O)[C@H](CCC(=O)O)NC(=O)[C@@H](NC(=O)[C@H](C)NC(=O)[C@@H]1CSSC[C@H](NC(=O)[C@H](CCCNC(=N)N)NC(=O)CC[C@H](NC(=O)CCCCCCCCCCCCCCCCCCC(=O)O)C(=O)O)C(=O)NCC(=O)N[C@@H]([C@@H](C)O)C(=O)N[C@@H](C)C(=O)N[C@@H]([C@@H](C)O)C(=O)N1)[C@@H](C)O)[C@@H](C)O
B7: [19CD]-isoGlu-R-C( )-GTAT-C( )-ATERLAHFLTRSSF-Gly(Me)-A-Ile(Me)-LSSTEVGSTT-Hyp-NH2 (Compd. 48) (peptide)
peptide: {C20 diacid}-[γGlu]RCGTATCATERLAHFLTRSSF[Sar]A[NMeI]LSSTEVGSTT[Hyp]-NH2
modifications: disulfide 3-8
SMILES: CC[C@H](C)[C@@H](C(=O)N[C@@H](CC(C)C)C(=O)N[C@@H](CO)C(=O)N[C@@H](CO)C(=O)N[C@H](C(=O)N[C@@H](CCC(=O)O)C(=O)N[C@H](C(=O)NCC(=O)N[C@@H](CO)C(=O)N[C@H](C(=O)N[C@H](C(=O)N1C[C@H](O)C[C@H]1C(N)=O)[C@@H](C)O)[C@@H](C)O)C(C)C)[C@@H](C)O)N(C)C(=O)[C@H](C)NC(=O)CN(C)C(=O)[C@H](Cc1ccccc1)NC(=O)[C@H](CO)NC(=O)[C@H](CO)NC(=O)[C@H](CCCNC(=N)N)NC(=O)[C@@H](NC(=O)[C@H](CC(C)C)NC(=O)[C@H](Cc1ccccc1)NC(=O)[C@H](Cc1c[nH]cn1)NC(=O)[C@H](C)NC(=O)[C@H](CC(C)C)NC(=O)[C@H](CCCNC(=N)N)NC(=O)[C@H](CCC(=O)O)NC(=O)[C@@H](NC(=O)[C@H](C)NC(=O)[C@@H]1CSSC[C@H](NC(=O)[C@H](CCCNC(=N)N)NC(=O)CC[C@H](NC(=O)CCCCCCCCCCCCCCCCCCC(=O)O)C(=O)O)C(=O)NCC(=O)N[C@@H]([C@@H](C)O)C(=O)N[C@@H](C)C(=O)N[C@@H]([C@@H](C)O)C(=O)N1)[C@@H](C)O)[C@@H](C)O

target: T1, human amylin receptor 3 (hAMYR3), hCTR2 …; experiment: cell-based or functional assay

Row | Binder | hAMYR3 EC50 (nM); cAMP induction
1 | B1 | 0.34 nM
2 | B2 | 0.35 nM
3 | B3 | 0.3 nM
4 | B4 | 0.31 nM
5 | B5 | 0.14 nM
6 | B6 | 0.19 nM
7 | B7 | 0.26 nM
